Reference: patent publication US20140178329A1 (INSTITUCIO CATALANA DE RECERCA I ESTUDIS AVANCATS ICREA, published 2014)
Blank lines part the entries; values can stand above or below the binder they belong to. No end group written: not given here.

B1: FLAG-tagged wild-type soluble APRIL (amino acid 105 to 250) (ligand)
chain: AVLTQKQKKQHSVLHLVPINATSKDDSDVTEVMWQPALRRGRGLQAQGYGVRIQDAGVYLLYSQVLFQDVTFTMGQVVSREGQGRQETLFRCIRSMPSHPDRAYNSCYSAGVFHLHQGDILSVIIPRARAKLNLSPHGTFLGFVKL
notes: Used as conditioned medium of transfected 293T cells, not purified; also called WT; WT APRIL; not shown: FLAG tag
B4: mouse TACI-Fc (R&D Systems) (Fc fusion, UniProt Q9ET35 5-129, looked up)
chain: FCPKDQYWDSSRKSCVSCALTCSQRSQRTCTDFCKFINCRKEQGRYYDHLLGACVSCDSTCTQHPQQCAHFCEKRPRSQANLQPELGRPQAGEVEVRSDNSGRHQGSEHGPGLRLSSDQLTLYCT
notes: Bought; also called mTACI-Fc; murine TACI-Fc; not shown: Fc portion of human IgG1
B14: mouse BCMA-Fc (R&D Systems) (Fc fusion, UniProt O88472 2-49, looked up)
chain: AQQCFHSEYFDSLLHACKPCHLRCSNPPATCQPYCDPSVTSSVKGTYT
notes: Bought; also called mBCMA-Fc; murine BCMA-Fc; not shown: Fc portion of human IgG1

Experiments:
human TACI-Fc = target: T1, human TACI-Fc (human, UniProt O14836 2-160, limits assumed); experiment: SPR (Biacore 2000), FLAG-APRIL captured by anti-FLAG M2, receptor-Fc injected, single cycle kinetics, 1:1 fit
T1 construct: Generated in-house; not shown: Fc portion of human IgG1
T1 sequence (looked up): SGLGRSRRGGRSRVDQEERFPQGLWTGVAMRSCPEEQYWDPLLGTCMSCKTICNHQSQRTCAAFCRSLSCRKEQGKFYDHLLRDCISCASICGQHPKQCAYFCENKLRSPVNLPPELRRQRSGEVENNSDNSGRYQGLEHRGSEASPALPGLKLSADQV
Procedure: (§1) FIG. 10: Surface Plasmon Resonance sensorgrams to illustrate binding of TACI-Fc and BCMA-Fc to WT and R206E-APRIL. Sensorgrams of human (Panel A) and mouse (Panel B) receptors binding to WT and R206E-APRIL. Stepwise increments in the curves represent sequential injections of receptor at the following concentrations: […]. In some cases, no value for affinity was calculated due to a low binding response or high drift.
(§2) In order to further assess the binding properties of the mutants and to measure apparent affinities and kinetics of receptor binding, a Surface Plasmon Resonance based receptor binding assay was performed on a Biacore 2000 (GE Healthcare, Diegem, Belgium). Anti-FLAG-M2 monoclonal antibody (Sigma-Aldrich) was diluted at a concentration of 5 μg/ml in 10 mM sodium acetate pH 4.5 and covalently immobilized (approx 1500 RU) to a CM-5 sensor chip (GE Healthcare), using standard amine coupling chemistry according to manufacturer's guidelines (Amine coupling kit, GE Healthcare). The different FLAG-APRIL variants in the form of tissue culture supernatants were captured onto the chip via the FLAG-tag at 10 μl/minute for five minutes, giving capture levels ranging from 159 to 207 RU. As a reference lane, one of the flow cells was left free of soluble FLAG-APRIL, to control for any background binding. BCMA- or TACI-Fc were then injected for three minutes over all four flow cells at 30 μl/minutes at increasing concentrations (ranging from 1-50 nM) using the single cycle kinetics method at 25° C. Dissociation was monitored for five minutes. The resulting curves were fitted using a 1:1 Langmuir model using BIAevaluation software 4.1. For each combination of FLAG-APRIL and BCMA- or TACI-Fc, the apparent kₐ, kd and KD were calculated from a global fit of binding curves from at least three separate experiments. Non-specific binding in the reference cell was subtracted before curve fitting. Regeneration of the anti-FLAG antibody surface was carried out with a 10-minute injection at 30 μl/minute of a mixture of ⅓ volume of TBS pH 11.5, ⅓ volume of Ionic solution and ⅓ volume of water. The Ionic solution was comprised of KSCN (0.46 M), MgCl₂ (1.83 M), urea (0.92 M) and guanidine-HCl (1.83 M).

[1] = target: B14; experiment: receptor-binding ELISA, mouse BCMA-Fc coated, dilution series of conditioned medium, anti-FLAG-HRP, OD 405 nm [TACI selective, Ms BCMA-Fc coated]
Procedure: (§3) The relative binding of the variants to either BCMA or TACI, was tested using a binding ELISA. The following proteins were used: human BCMA-Fc, human TACI-Fc (both generated in-house), mouse BCMA-Fc (R&D Systems, Abingdon, UK), mouse TACI-Fc (R&D Systems); in all cases the Fc portion is from human IgG1. BCMA-Fc and TACI-Fc were coated on 96-well Nunc Maxisorp plates (Thermo Fischer Scientific, Roskilde, Denmark) at concentrations of 1 μg/ml and 2 μg/ml, respectively, in 0.5 M sodium bicarbonate buffer pH 9.5, overnight at 4° C. Plates were then blocked with 5% BSA for one hour at 37° C. Soluble APRIL variants in the form of tissue culture conditioned medium were then added to the plate for two hours at 37° C. Following APRIL binding, plates were washed three times with PBS, 0.05% TWEEN®20. Bound APRIL was detected with 1 μg/ml of HRP-coupled anti-FLAG M2 and visualized with 2,2′-azino-bis(3-ethylbenzothiazoline-6-sulphonic acid (ABTS) (Sigma-Aldrich). The absorbance was read at 405 nm using a UV-VIS microplate reader (BioRad, Veenendaal, The Netherlands).

[2] = target: B4; experiment: receptor-binding ELISA, mouse TACI-Fc coated, dilution series of conditioned medium, anti-FLAG-HRP, OD 405 nm [TACI selective, Ms TACI-Fc coated]
Procedure: as §3

[3] = target: B14; experiment: receptor-binding ELISA, mouse BCMA-Fc coated, dilution series of conditioned medium, anti-FLAG-HRP, OD 405 nm [BCMA selective, Ms BCMA-Fc coated]
Procedure: as §3

[4] = target: B1; experiment: SPR (Biacore 2000), FLAG-APRIL captured by anti-FLAG M2, receptor-Fc injected, single cycle kinetics, 1:1 fit
Procedure: as §1, §2

[5] = target: B4; experiment: receptor-binding ELISA, mouse TACI-Fc coated [TACI selective, Ms TACI-Fc coated]
Procedure: as §3

Binder: B1
Kd (human TACI-Fc): 3.9 nM
koff (human TACI-Fc): 0.00041 s⁻¹
kon (human TACI-Fc): 110000 M⁻¹ s⁻¹

binding result [1]: binds
binding result [2]: binds
B2: APRIL-H241T (FLAG-tagged soluble variant) (ligand)
chain: AVLTQKQKKQHSVLHLVPINATSKDDSDVTEVMWQPALRRGRGLQAQGYGVRIQDAGVYLLYSQVLFQDVTFTMGQVVSREGQGRQETLFRCIRSMPSHPDRAYNSCYSAGVFHLHQGDILSVIIPRARAKLNLSPTGTFLGFVKL
notes: not shown: FLAG tag

Kd (human TACI-Fc): 0.32 nM
koff (human TACI-Fc): 0.00016 s⁻¹
kon (human TACI-Fc): 490000 M⁻¹ s⁻¹
binding result [3]: binds
B3: APRIL-R206M (FLAG-tagged soluble variant) (ligand)
chain: AVLTQKQKKQHSVLHLVPINATSKDDSDVTEVMWQPALRRGRGLQAQGYGVRIQDAGVYLLYSQVLFQDVTFTMGQVVSREGQGRQETLFRCIRSMPSHPDMAYNSCYSAGVFHLHQGDILSVIIPRARAKLNLSPHGTFLGFVKL
notes: Used as conditioned medium; not shown: FLAG tag

Binder: B4
Kd [4]: 4.4 nM
koff [4]: 0.00075 s⁻¹
kon [4]: 170000 M⁻¹ s⁻¹

binding result [1]: binds
binding result [2]: binds
B5: R233E (ligand)
soluble APRIL monomer: AVLTQKQKKQHSVLHLVPINATSKDDSDVTEVMWQPALRRGRGLQAQGYGVRIQDAGVYLLYSQVLFQDVTFTMGQVVSREGQGRQETLFRCIRSMPSHPDRAYNSCYSAGVFHLHQGDILSVIIPRAEAKLNLSPHGTFLGFVKL
notes: FLAG-tagged soluble variant used as 293T conditioned medium; predicted TACI-selective; member of group m13; also called APRIL-R233E

binding result [3]: binds
B6: APRIL-T175D (FLAG-tagged soluble variant) (ligand)
chain: AVLTQKQKKQHSVLHLVPINATSKDDSDVTEVMWQPALRRGRGLQAQGYGVRIQDAGVYLLYSQVLFQDVDFTMGQVVSREGQGRQETLFRCIRSMPSHPDRAYNSCYSAGVFHLHQGDILSVIIPRARAKLNLSPHGTFLGFVKL
notes: as for B3

binding result [5]: no binding
binding result [1]: binds
B7: T175Y (ligand)
soluble APRIL monomer: AVLTQKQKKQHSVLHLVPINATSKDDSDVTEVMWQPALRRGRGLQAQGYGVRIQDAGVYLLYSQVLFQDVYFTMGQVVSREGQGRQETLFRCIRSMPSHPDRAYNSCYSAGVFHLHQGDILSVIIPRARAKLNLSPHGTFLGFVKL
notes: FLAG-tagged soluble variant used as 293T conditioned medium; predicted TACI-selective; member of group m13; also called APRIL-T175Y

binding result [1]: binds
B8: APRIL-D132Y (FLAG-tagged soluble variant) (ligand)
chain: AVLTQKQKKQHSVLHLVPINATSKDDSYVTEVMWQPALRRGRGLQAQGYGVRIQDAGVYLLYSQVLFQDVTFTMGQVVSREGQGRQETLFRCIRSMPSHPDRAYNSCYSAGVFHLHQGDILSVIIPRARAKLNLSPHGTFLGFVKL
notes: as for B3

binding result [1]: binds
B9: APRIL-D132F (FLAG-tagged soluble variant) (ligand)
chain: AVLTQKQKKQHSVLHLVPINATSKDDSFVTEVMWQPALRRGRGLQAQGYGVRIQDAGVYLLYSQVLFQDVTFTMGQVVSREGQGRQETLFRCIRSMPSHPDRAYNSCYSAGVFHLHQGDILSVIIPRARAKLNLSPHGTFLGFVKL
notes: as for B3

binding result [5]: no binding
binding result [1]: binds
B10: T175F (ligand)
soluble APRIL monomer: AVLTQKQKKQHSVLHLVPINATSKDDSDVTEVMWQPALRRGRGLQAQGYGVRIQDAGVYLLYSQVLFQDVFFTMGQVVSREGQGRQETLFRCIRSMPSHPDRAYNSCYSAGVFHLHQGDILSVIIPRARAKLNLSPHGTFLGFVKL
notes: FLAG-tagged soluble variant used as 293T conditioned medium; predicted TACI-selective; member of group m13; also called APRIL-T175F

binding result [1]: binds
binding result [2]: binds
B11: D132A (ligand)
soluble APRIL monomer: AVLTQKQKKQHSVLHLVPINATSKDDSAVTEVMWQPALRRGRGLQAQGYGVRIQDAGVYLLYSQVLFQDVTFTMGQVVSREGQGRQETLFRCIRSMPSHPDRAYNSCYSAGVFHLHQGDILSVIIPRARAKLNLSPHGTFLGFVKL
notes: FLAG-tagged soluble variant used as 293T conditioned medium; predicted TACI-selective; member of group m13; also called APRIL-D132A

binding result [3]: binds
B12: APRIL-D205Y (FLAG-tagged soluble variant) (ligand)
chain: AVLTQKQKKQHSVLHLVPINATSKDDSDVTEVMWQPALRRGRGLQAQGYGVRIQDAGVYLLYSQVLFQDVTFTMGQVVSREGQGRQETLFRCIRSMPSHPYRAYNSCYSAGVFHLHQGDILSVIIPRARAKLNLSPHGTFLGFVKL
notes: as for B3

Kd [4]: 0.38 nM
koff [4]: 0.0002 s⁻¹
kon [4]: 530000 M⁻¹ s⁻¹
B13: human BCMA-Fc (Fc fusion, UniProt Q02223 2-54, looked up)
chain: LQMAGQCSQNEYFDSLLHACIPCQLRCSSNTPPLTCQRYCNASVTNSVKGTNA
modifications: cysteine pairing not given here; also: fused to human IgG1 Fc, construct limits, linker and order not given here
notes: Generated in-house; not shown: Fc portion of human IgG1

Binder: B14
Kd [4]: 0.14 nM
koff [4]: 0.00013 s⁻¹
kon [4]: 890000 M⁻¹ s⁻¹

binding result [1]: binds
binding result [2]: binds
B15: R233A (ligand)
soluble APRIL monomer: AVLTQKQKKQHSVLHLVPINATSKDDSDVTEVMWQPALRRGRGLQAQGYGVRIQDAGVYLLYSQVLFQDVTFTMGQVVSREGQGRQETLFRCIRSMPSHPDRAYNSCYSAGVFHLHQGDILSVIIPRAAAKLNLSPHGTFLGFVKL
notes: FLAG-tagged soluble variant used as 293T conditioned medium; predicted TACI-selective; member of group m13; also called APRIL-R233A

binding result [5]: no binding
binding result [1]: binds
B16: T175L (ligand)
soluble APRIL monomer: AVLTQKQKKQHSVLHLVPINATSKDDSDVTEVMWQPALRRGRGLQAQGYGVRIQDAGVYLLYSQVLFQDVLFTMGQVVSREGQGRQETLFRCIRSMPSHPDRAYNSCYSAGVFHLHQGDILSVIIPRARAKLNLSPHGTFLGFVKL
notes: FLAG-tagged soluble variant used as 293T conditioned medium; predicted TACI-selective; member of group m13; also called APRIL-T175L
